Results from patent US20250179152A1.

Target: wild type Δ19 spike protein on pseudotyped lentivirus (SARS-CoV-2 (Wuhan-1)), P0DTC2
Assay: cell-based or functional assay

Row | Binder | IC50, pseudotyped lentivirus [µM] | Neutralization IC50, pseudotyped lentivirus [µM] | fold enhancement of neutralization IC50 upon trimerization (against SR16m) [fold]
1 | SR16m (designed binder) MGSSDLGKKLLEAARAGQDDEVRILMANGADVNALDLFGVTPLHLAAERGHLEIVEVLLKNGADVNAGDAFGRTPLHLAALGGHLEIVEVLLKNGADVNACDLYGVTPLHLAAGLGHLEIVEVLLKNGADVNAQDKFGKTAFDISIDNGNEDLAEILQSSSKLAAALEHHHHHH | 11 | 11.6 | –
2 | FSR16m (designed binder) MGMEQKLISEEDLDGYIPEAPRDGQAYVRKDGEWVLLSTFLGGGGSLQGGGGSLQGSDLGKKLLEAARAGQDDEVRILMANGADVNALDLFGVTPLHLAAERGHLEIVEVLLKNGADVNAGDAFGRTPLHLAALGGHLEIVEVLLKNGADVNACDLYGVTPLHLAAGLGHLEIVEVLLKNGADVNAQDKFGKTAFDISIDNGNEDLAEILQSSSKLAAALEHHHHHH | – | – | 35000
3 | SR22 (designed binder) MGSSHHHHHHSSGLVPRGSHMEQKLISEEDLGSDLGKKLLEAARAGQDDEVRILMANGADVNACDPSGITPLHLAADKGHLEIVEVLLKYGADVNAMDVWGRTPLHLAAFTGHLEIVEVLLKYGADVNACDLNGYTPLHLAAGRGHLEIVEVLLKNGAGVNAQDKFGKTAFDISIDNGNEDLAEILQSSS | – | 0.7 | –
